According to publication PMC7060239:

Target: human DNMT1 RFTS domain, residues 351–600 (human) (UniProt P26358)
Assay: ITC; hRFTS and ubiquitylated hPAF15_(2-30) analogs; VP-ITC; 10 mM HEPES-NaOH (pH 7.5), 150 mM NaCl, 10 μM zinc acetate; one-site model; c value 10,000 for hPAF15_(2-30)Ub2

human DNMT1 RFTS domain, residues 351–600 (human), sequence (P26358 351-600): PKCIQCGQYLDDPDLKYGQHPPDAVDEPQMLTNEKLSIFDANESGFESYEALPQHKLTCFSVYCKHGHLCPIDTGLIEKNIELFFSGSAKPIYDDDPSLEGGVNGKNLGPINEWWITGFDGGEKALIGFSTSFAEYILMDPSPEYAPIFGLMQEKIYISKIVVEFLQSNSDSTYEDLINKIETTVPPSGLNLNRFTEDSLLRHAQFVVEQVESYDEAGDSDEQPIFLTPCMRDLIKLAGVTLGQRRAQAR

Row | Kd [nM] | stoichiometry N | Substance
1 | 1.4 | 1 | hPAF15_(2-30)Ub2, disulfide-linked dual mono-ubiquitylated analog of human PAF15 (residues 2–30) (from UniProt Q15004 2-30)
2 | 1200 |  | hPAF15_(2-30)K15Ub, disulfide-linked mono-ubiquitylated analog (from UniProt Q15004 2-30)
